Test results as given in paper PMC3542820.

Target: T1, Rfa2-His from WT cells (HT41), dephosphorylated G1 form (Candida albicans, UniProt Q59Z33 1-272)
T1 sequence: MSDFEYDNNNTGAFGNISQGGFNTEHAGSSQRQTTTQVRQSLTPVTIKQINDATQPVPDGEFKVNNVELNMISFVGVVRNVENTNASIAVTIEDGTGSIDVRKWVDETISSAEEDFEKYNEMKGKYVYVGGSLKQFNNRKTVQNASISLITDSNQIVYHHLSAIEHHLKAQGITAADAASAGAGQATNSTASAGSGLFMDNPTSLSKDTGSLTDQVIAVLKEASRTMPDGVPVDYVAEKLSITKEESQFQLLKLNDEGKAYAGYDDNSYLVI
Assay: EMSA

B1: FITC-dsDNA 30 bp (dsDNA)
DNA 1: CCCCTCTCCTTCTTGGCCTCTTCCTTCCCC
DNA 2: GGGGAAGGAAGAGGCCAAGAAGGAGAGGGG
  binding result: binds
